According to patent US10927178B2, “Anti-CXCR4 antibodies and antibody-drug conjugates” (PFIZER INC., priority 2013, dated 2021):

The molecules below were run against T1, human CXCR4-enriched lipoparticles (Homo sapiens, UniProt P61073) (assay: Biosensor affinity measurement of Fabs on CXCR4-enriched lipoparticles). Settings: Fab; kinetic titration.
T1 construct: purchased Integral Molecular, Philadelphia Pa; LEV101
Assay type: binding
Procedure: One way of determining binding affinity of antibodies to CXCR4 is by measuring binding affinity of monofunctional Fab fragments of the antibody. To obtain monofunctional Fab fragments, an antibody (for example, IgG) can be cleaved with papain or expressed recombinantly. […] Biotinylated WGA can be coated on the SA chip to facilitate capturing Lipoparticles containing CXCR4 proteins. […] J. Mol. Recognit. 12, 279-284 (1999).
The concentrations of the Fab proteins are determined by ELISA and/or SDS-PAGE electrophoresis using a Fab of known concentration (as determined by amino acid analysis) as a standard. Kinetic association rates (kon) and dissociation rates (koff) are obtained simultaneously by fitting the data globally to a 1:1 Langmuir binding model (Karlsson, R. Roos, H. Fagerstam, L. Petersson, B. (1994). Methods Enzymology 6. 99-110) using the BIAevaluation program. Equilibrium dissociation constant (KD) values are calculated as koff/kon.
The binding affinity of each Fab was determined using human CXCR4-enriched lipoparticles (LEV101, Integral Molecular, Philadelphia Pa.). Biotinylated WGA (Sigma Aldrich, St. Louis Mo.)) can be coated on the SA chip to facilitate capturing lipoparticles containing CXCR4 proteins. […] J. Mol. Recognit. 12, 279-284 (1999).

T1 sequence (P61073 whole entry): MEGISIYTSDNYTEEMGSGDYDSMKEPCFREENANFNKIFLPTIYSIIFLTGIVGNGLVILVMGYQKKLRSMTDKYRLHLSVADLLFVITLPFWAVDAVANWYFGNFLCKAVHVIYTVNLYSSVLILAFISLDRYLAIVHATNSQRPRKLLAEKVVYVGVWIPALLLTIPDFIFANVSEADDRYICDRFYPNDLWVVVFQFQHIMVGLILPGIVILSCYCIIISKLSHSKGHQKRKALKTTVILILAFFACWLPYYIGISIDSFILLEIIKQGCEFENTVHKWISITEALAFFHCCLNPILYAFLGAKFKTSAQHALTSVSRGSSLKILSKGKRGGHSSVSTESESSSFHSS

| Molecule | Ka (1/MS) | Kd |
| --- | --- | --- |
| h3G10.1.91 VH/h3G10.2.72 VL: Fab; VH SEQ ID NO:33, VL SEQ ID NO:49 (antibody, V domains shown, Fab) VH: EVQLVESGGGLVQPGGSLRLSCAASGFTFSDYYMSWVRQAPGKGLEWVGFIRHKANFETTEYSTSVKGRFTISRDDSKNSLYLQMNSLKTEDTAVYYCARDLPGFAYWGQGTLVTVSS VL: DIVMTQSPDSLAVSLGERATINCKSSQSLFNSRTRKNYLAWYQQKPGQPPKLLIYWASARESGVPDRFSGSGSGTDFTLTISSLQAEDVAVYYCKQSFRLRTFGGGTKVEIK | 1.50E+06 1/MS | 0.00049 s⁻¹ |
| h3G10 VH/h3G10 VL: Fab; VH SEQ ID NO:21, VL SEQ ID NO:47 (antibody, V domains shown, Fab) VH: EVQLVESGGGLVQPGGSLRLSCAASGFTFSDYYMSWVRQAPGKGLEWVGFIRHKANGYTTEYSTSVKGRFTISRDDSKNSLYLQMNSLKTEDTAVYYCARDLPGFAYWGQGTLVTVSS VL: DIVMTQSPDSLAVSLGERATINCKSSQSLFNSRTRKNYLAWYQQKPGQPPKLLIYWASARESGVPDRFSGSGSGTDFTLTISSLQAEDVAVYYCKQSFNLRTFGGGTKVEIK | 1.60E+06 1/MS | 0.003 s⁻¹ |
| h3G10.2.37 VH/h3G10.2.72 VL: Fab; VH SEQ ID NO:35, VL SEQ ID NO:49 (antibody, V domains shown, Fab) VH: EVQLVESGGGLVQPGGSLRLSCAASGFTFSDYYMSWVRQAPGKGLEWVGFIRHKANFYTREYSTSVKGRFTISRDDSKNSLYLQMNSLKTEDTAVYYCARDLPGFAYWGQGTLVTVSS VL: DIVMTQSPDSLAVSLGERATINCKSSQSLFNSRTRKNYLAWYQQKPGQPPKLLIYWASARESGVPDRFSGSGSGTDFTLTISSLQAEDVAVYYCKQSFRLRTFGGGTKVEIK | 2.30E+06 1/MS | 0.0008 s⁻¹ |
| h3G10.1.91 VH/h3G10.A58A VL: Fab; VH SEQ ID NO:33, VL SEQ ID NO:57 (antibody, V domains shown, Fab) VH: EVQLVESGGGLVQPGGSLRLSCAASGFTFSDYYMSWVRQAPGKGLEWVGFIRHKANFETTEYSTSVKGRFTISRDDSKNSLYLQMNSLKTEDTAVYYCARDLPGFAYWGQGTLVTVSS VL: DIVMTQSPDSLAVSLGERATINCKSSQSLFNSHTRKNYLAWYQQKPGQPPKLLIYWASARGSGVPDRFSGSGSGTDFTLTISSLQAEDVAVYYCKQSFRLRTFGGGTKVEIK | 9.08E+05 1/MS | 0.000341 s⁻¹ |
| h3G10.1.91 VH/h3G10.A58B VL: Fab; VH SEQ ID NO:33, VL SEQ ID NO:73 (antibody, V domains shown, Fab) VH: EVQLVESGGGLVQPGGSLRLSCAASGFTFSDYYMSWVRQAPGKGLEWVGFIRHKANFETTEYSTSVKGRFTISRDDSKNSLYLQMNSLKTEDTAVYYCARDLPGFAYWGQGTLVTVSS VL: DIVMTQSPDSLAVSLGERATINCKSSQSLFNSHTRKNYLAWYQQKPGQPPKLLIYWASARGSGVPDRFSGSGSGTDFTLTISSLQAEDVAVYYCKQSFNLRTFGGGTKVEIK | 8.03E+05 1/MS | 0.000286 s⁻¹ |
| h3G10.2.37 VH/h3G10.A58A VL: Fab; VH SEQ ID NO:35, VL SEQ ID NO:57 (antibody, V domains shown, Fab) VH: EVQLVESGGGLVQPGGSLRLSCAASGFTFSDYYMSWVRQAPGKGLEWVGFIRHKANFYTREYSTSVKGRFTISRDDSKNSLYLQMNSLKTEDTAVYYCARDLPGFAYWGQGTLVTVSS VL: DIVMTQSPDSLAVSLGERATINCKSSQSLFNSHTRKNYLAWYQQKPGQPPKLLIYWASARGSGVPDRFSGSGSGTDFTLTISSLQAEDVAVYYCKQSFRLRTFGGGTKVEIK | 1.29E+06 1/MS | 0.000418 s⁻¹ |

Second part, the molecule after the results:

| Ka (1/MS) | Kd | Molecule |
| --- | --- | --- |
| 7.97E+05 1/MS | 0.000449 s⁻¹ | h3G10.2.37 VH/h3G10.A58B VL: Fab; VH SEQ ID NO:35, VL SEQ ID NO:73 (antibody, V domains shown, Fab) VH: EVQLVESGGGLVQPGGSLRLSCAASGFTFSDYYMSWVRQAPGKGLEWVGFIRHKANFYTREYSTSVKGRFTISRDDSKNSLYLQMNSLKTEDTAVYYCARDLPGFAYWGQGTLVTVSS VL: DIVMTQSPDSLAVSLGERATINCKSSQSLFNSHTRKNYLAWYQQKPGQPPKLLIYWASARGSGVPDRFSGSGSGTDFTLTISSLQAEDVAVYYCKQSFNLRTFGGGTKVEIK |
| 1.10E+06 1/MS | 0.0013 s⁻¹ | h3G10.A57 VH/h3G10.2.72 VL: Fab; VH SEQ ID NO:23, VL SEQ ID NO:49 (antibody, V domains shown, Fab) VH: EVQLVESGGGLVQPGGSLRLSCAASGFTFSDYYMSWVRQAPGKGLEWVGFIRHKANFYTTEYSTSVKGRFTISRDDSKNSLYLQMNSLKTEDTAVYYCARDLPGFAYWGQGTLVTVSS VL: DIVMTQSPDSLAVSLGERATINCKSSQSLFNSRTRKNYLAWYQQKPGQPPKLLIYWASARESGVPDRFSGSGSGTDFTLTISSLQAEDVAVYYCKQSFRLRTFGGGTKVEIK |
| 1.17E+06 1/MS | 0.00143 s⁻¹ | h3G10.A57 VH/h3G10 VL: Fab; VH SEQ ID NO:23, VL SEQ ID NO:47 (antibody, V domains shown, Fab) VH: EVQLVESGGGLVQPGGSLRLSCAASGFTFSDYYMSWVRQAPGKGLEWVGFIRHKANFYTTEYSTSVKGRFTISRDDSKNSLYLQMNSLKTEDTAVYYCARDLPGFAYWGQGTLVTVSS VL: DIVMTQSPDSLAVSLGERATINCKSSQSLFNSRTRKNYLAWYQQKPGQPPKLLIYWASARESGVPDRFSGSGSGTDFTLTISSLQAEDVAVYYCKQSFNLRTFGGGTKVEIK |
| 1.60E+06 1/MS | 0.00063 s⁻¹ | h3G10.A57 VH/h3G10.A58A VL: Fab; VH SEQ ID NO:23, VL SEQ ID NO:57 (antibody, V domains shown, Fab) VH: EVQLVESGGGLVQPGGSLRLSCAASGFTFSDYYMSWVRQAPGKGLEWVGFIRHKANFYTTEYSTSVKGRFTISRDDSKNSLYLQMNSLKTEDTAVYYCARDLPGFAYWGQGTLVTVSS VL: DIVMTQSPDSLAVSLGERATINCKSSQSLFNSHTRKNYLAWYQQKPGQPPKLLIYWASARGSGVPDRFSGSGSGTDFTLTISSLQAEDVAVYYCKQSFRLRTFGGGTKVEIK |
| 6.88E+05 1/MS | 0.000515 s⁻¹ | h3G10.A57 VH/h3G10.A58B VL: Fab; VH SEQ ID NO:23, VL SEQ ID NO:73 (antibody, V domains shown, Fab) VH: EVQLVESGGGLVQPGGSLRLSCAASGFTFSDYYMSWVRQAPGKGLEWVGFIRHKANFYTTEYSTSVKGRFTISRDDSKNSLYLQMNSLKTEDTAVYYCARDLPGFAYWGQGTLVTVSS VL: DIVMTQSPDSLAVSLGERATINCKSSQSLFNSHTRKNYLAWYQQKPGQPPKLLIYWASARGSGVPDRFSGSGSGTDFTLTISSLQAEDVAVYYCKQSFNLRTFGGGTKVEIK |
